Reference: patent US20150072933A1, “NOVEL SEQUENCES FOR THE CONTROL OF REPRODUCTION IN FISH” (Yissum Research Development Company of the Hebrew …, priority 2011, published 2015)
*1 amine or outer side, *2 acyl side, *3 side chain or, on linkers, in order; H or OH if unused. Where no end group is shown, it is not given here. [ ]: non-standard residue; d: D form. NMeF = CN[C@@H](Cc1ccccc1)C(=O)O; Suc = O=C(CCC(=O)[*:2])[*:1]; NMeV = CN[C@H](C(=O)O)C(C)C

T1: zebrafish Tac3rb (tac3 receptor b, NKB receptor) (zebrafish)
T1 chain: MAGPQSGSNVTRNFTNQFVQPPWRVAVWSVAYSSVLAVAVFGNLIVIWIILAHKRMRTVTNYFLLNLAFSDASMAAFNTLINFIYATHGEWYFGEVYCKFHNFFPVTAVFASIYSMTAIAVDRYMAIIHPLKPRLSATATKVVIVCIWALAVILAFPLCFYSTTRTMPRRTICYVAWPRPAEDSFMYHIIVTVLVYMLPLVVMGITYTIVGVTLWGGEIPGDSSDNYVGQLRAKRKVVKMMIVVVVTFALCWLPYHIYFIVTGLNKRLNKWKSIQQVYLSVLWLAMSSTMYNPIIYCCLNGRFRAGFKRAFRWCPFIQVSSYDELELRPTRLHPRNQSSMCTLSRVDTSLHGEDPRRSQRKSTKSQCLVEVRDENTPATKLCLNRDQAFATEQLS

T2: human NK3R (human NKB receptor) (human, UniProt P29371 1-465)
T2 sequence (looked up): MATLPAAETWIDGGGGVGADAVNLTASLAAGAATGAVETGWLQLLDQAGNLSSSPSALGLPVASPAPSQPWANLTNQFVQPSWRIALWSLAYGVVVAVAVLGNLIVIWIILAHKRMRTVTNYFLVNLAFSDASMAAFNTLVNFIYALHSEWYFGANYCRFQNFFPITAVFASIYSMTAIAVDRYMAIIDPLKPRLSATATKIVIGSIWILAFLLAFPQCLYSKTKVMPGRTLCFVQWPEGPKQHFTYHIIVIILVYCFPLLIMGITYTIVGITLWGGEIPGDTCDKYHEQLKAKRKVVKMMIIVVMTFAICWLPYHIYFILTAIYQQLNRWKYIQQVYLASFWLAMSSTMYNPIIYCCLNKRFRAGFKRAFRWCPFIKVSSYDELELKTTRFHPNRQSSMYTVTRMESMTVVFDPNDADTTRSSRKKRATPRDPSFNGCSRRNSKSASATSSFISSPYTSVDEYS

T3: zebrafish Tac3ra (tac3 receptor a, NKB receptor) (zebrafish)
T3 chain: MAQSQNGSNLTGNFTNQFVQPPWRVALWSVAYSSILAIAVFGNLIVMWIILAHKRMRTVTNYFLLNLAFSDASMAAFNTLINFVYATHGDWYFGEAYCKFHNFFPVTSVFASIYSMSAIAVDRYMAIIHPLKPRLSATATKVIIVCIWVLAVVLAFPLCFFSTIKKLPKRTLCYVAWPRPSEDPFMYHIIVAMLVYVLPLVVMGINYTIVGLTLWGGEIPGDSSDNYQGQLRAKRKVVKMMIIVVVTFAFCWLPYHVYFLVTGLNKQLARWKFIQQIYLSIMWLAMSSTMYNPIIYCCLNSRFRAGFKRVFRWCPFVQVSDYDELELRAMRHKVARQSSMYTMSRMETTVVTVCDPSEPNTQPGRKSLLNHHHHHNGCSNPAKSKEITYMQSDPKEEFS

B1: NKBa-analog (Succ-Asp-Ile-Phe-N(Me)Val-Gly-Leu-Met-NH2) (peptide)
peptide: Suc-DIF[NMeV]GLM-NH2
SMILES: CC[C@H](C)[C@H](NC(=O)[C@H](CC(=O)O)NC(=O)CCC(=O)O)C(=O)N[C@@H](Cc1ccccc1)C(=O)N(C)[C@H](C(=O)NCC(=O)N[C@@H](CC(C)C)C(=O)N[C@@H](CCSC)C(N)=O)C(C)C
B2: NKF-analog (Succ-Asp-Ser-Phe-N(Me)Val-Gly-Leu-Met-NH2) (peptide)
peptide: XDSFXGLM
modifications: N-terminal succinyl (Succ) on Asp; N(Me)Val; C-terminal amide (-NH2)
B3: Senktide (Succ-Asp-Phe-N(Me)Phe-Gly-Leu-Met-NH2) (peptide)
peptide: Suc-DF[NMeF]GLM-NH2
B4: human NKB (neurokinin B) (peptide)
peptide: DMHDFFVGLM-NH2
B5: Zebrafish Tac3a peptide, neurokinin Ba (EMHDIFVGLM-NH2) (peptide)
peptide: EMHDIFVGLM-NH2
B6: NKBb-analog (Succ-Asp-Phe-N(Me)Val-Gly-Leu-Met-NH2) (peptide)
peptide: Suc-DF[NMeV]GLM-NH2

How the values were obtained:
[1] = system: zfTac3ra; assay: Receptor transactivation assay, CRE-Luc reporter (PKA activation), COS-7 cells expressing zfTac3ra; type: cell-based, zebrafish; conditions: mean ± SEM
Protocol: (§1) In order to study the signaling pathways of the novel zebrafish NKBs, the entire coding regions of zftac3ra (denoted by SEQ ID NO:6) or zftac3rb (denoted by SEQ ID NO:7), or the cDNA clone for human NK3R (obtained from the Missouri S&T cDNA Resource Center, were inserted into pcDNA3.1 (Invitrogen). The luciferase assay was conducted according to Biran et al., 2008 [4] COS-7 cells were grown in DMEM supplemented with 10% FBS, 1% glutamine, 100 U/ml penicillin, and […] streptomycin (Biological Industries) under 5% CO2 until confluent. Cotransfection of either pc-zftac3ra, pc-zftac3rb or pc-Htac3r (at 3 μg/plate), a reporter plasmid (at 2 μg/plate), and pCMV-β-galactosidase (at 1 μg/plate) was carried out with FuGENE 6.0 reagent (Roche). The cells were serum starved for 36 h, stimulated with vehicle or various concentrations of either human (Sigma) or zebrafish NKBs for 6 h, and then harvested and analyzed. Lysates prepared from the harvested cells were assayed for both luciferase activity and β-galactosidase activity, which was used as an internal standard to normalize the luciferase activity directed by the test plasmid. Transfection experiments were performed in triplicate with three independently isolated sets. Protein structure prediction of zebrafish NKBa, NKBb or NKF were performed on I-Tasser servers.
(§2) The response, binding selectivity and signal transduction pathways of the novel tachykinin receptors to their agonists were evaluated by functional expression analysis, using COS-7 cells.
(§3) The NKB analogues (i.e. the NKBa-analog, NKBb-analog and NKF-analog, as denoted by SEQ ID NO. 44-46) were first analyzed in comparison to their native forms in a transactivation assay, using reporter genes for specific signal transduction pathways. To validate the specificity of the serum-responsive element (SRE)-Luc and cAMP-responsive element (CRE)-Luc reporter systems, specific activators for PLC/PKC and AC/PKA signaling pathways were used in control experiments.
(§4) Thus, the ability of the three novel piscine peptides (namely, NKBa, NKBb and NKF, denoted by SEQ ID NO.40, 41 and 42), as well as the ability of the three analogous agonistic peptides, namely, NKBa-analog, NKBb-analog and NKF-analog, to differentially activate the different tac3 receptors, using SRE as a reporter gene that follows PKC activation and CRE as a reporter gene for the PKA pathway, was tested. Human NK3R (human NKB receptor) and human NKB served as controls.

[2] = system: zfTac3rb; assay: Receptor transactivation assay, CRE-Luc reporter (PKA activation), COS-7 cells expressing zfTac3rb; type: cell-based, zebrafish; conditions: mean ± SEM
Protocol: as §1, §2, §3, §4

[3] = system: zfTac3ra; assay: Receptor transactivation assay, SRE-Luc reporter (PKC activation), COS-7 cells expressing zfTac3ra; type: cell-based, zebrafish; conditions: mean ± SEM
Protocol: as §1, §2, §3, §4

[4] = system: zfTac3rb; assay: Receptor transactivation assay, SRE-Luc reporter (PKC activation), COS-7 cells expressing zfTac3rb; type: cell-based, zebrafish; conditions: mean ± SEM
Protocol: as §1, §2, §3, §4

[5] = molecular target: T1, zebrafish Tac3rb (tac3 receptor b, NKB …); assay: cell-based or functional assay
[6] = molecular target: T2, human NK3R (human NKB receptor); assay: cell-based or functional assay
[7] = molecular target: T3, zebrafish Tac3ra (tac3 receptor a, NKB …); assay: cell-based or functional assay
[8] = molecular target: T1, zebrafish Tac3rb (tac3 receptor b, NKB …); assay: cell-based or functional assay
[9] = molecular target: T2, human NK3R (human NKB receptor); assay: cell-based or functional assay; remark: listed apart in the source
[10] = molecular target: T3, zebrafish Tac3ra (tac3 receptor a, NKB …); assay: cell-based or functional assay
[11] = molecular target: T1, zebrafish Tac3rb (tac3 receptor b, NKB …); assay: cell-based or functional assay
[12] = molecular target: T3, zebrafish Tac3ra (tac3 receptor a, NKB …); assay: cell-based or functional assay
[13] = molecular target: T2, human NK3R (human NKB receptor); assay: cell-based or functional assay; remark: listed apart in the source

Row | Molecule | EC50 ([1]; Table 5, COS-7 cells, CRE-Luc follows PKA activation, read-out: EC50 CRE-Luc zfTac3ra) | EC50 ([1]; Table 6 (native peptides and analogues), PKA activation, read-out: EC50 using CRE-Luc, zfTac3ra) | EC50 ([2]; Table 5, COS-7 cells, CRE-Luc follows PKA activation, read-out: EC50 CRE-Luc zfTac3rb) | EC50 ([2]; Table 6 (native peptides and analogues), PKA activation, read-out: EC50 using CRE-Luc, zfTac3rb) | EC50 ([3]; Table 5, COS-7 cells, SRE-Luc follows PKC activation, read-out: EC50 SRE-Luc zfTac3ra) | EC50 ([3]; Table 7 (native peptides and analogues), PKC activation, read-out: EC50 using SRE, zfTac3ra) | EC50 ([4]; Table 5, COS-7 cells, SRE-Luc follows PKC activation, read-out: EC50 SRE-Luc zfTac3rb) | EC50 ([4]; Table 7 (native peptides and analogues), PKC activation, read-out: EC50 using SRE, zfTac3rb) | EC50, CRE-Luc to follow PKA activation, transfected COS-7 cells [5] | EC50, CRE-Luc to follow PKA activation, transfected COS-7 cells [6] | EC50, CRE-Luc to follow PKA activation, transfected COS-7 cells [7] | EC50, SRE reporter gene that follows PKC activation, transfected COS-7 cells [8] | EC50, SRE reporter gene that follows PKC activation, transfected COS-7 cells [9] | EC50, SRE reporter gene that follows PKC activation, transfected COS-7 cells [10] | EC50, CRE-Luc reporter (PKA activation), transfected COS-7 cells [11] | EC50, SRE-Luc reporter (PKC activation), transfected COS-7 cells [11] | EC50, CRE-Luc reporter (PKA activation), transfected COS-7 cells [12] | EC50, SRE-Luc reporter (PKC activation), transfected COS-7 cells [12] | EC50, CRE-Luc reporter (PKA activation), transfected COS-7 cells [13] | EC50, SRE-Luc reporter (PKC activation), transfected COS-7 cells [13]
1 | CSCC[C@H](NC(=O)[C@H](CC(C)C)NC(=O)CNC(=O)[C@@H](NC(=O)[C@H](Cc1ccccc1)NC(=O)[C@H](Cc1ccccc1)NC(=O)[C@H](CC(=O)O)NC(=O)[C@H](Cc1c[nH]cn1)NC(=O)[C@H](CCSC)NC(=O)[C@@H](N)CC(=O)O)C(C)C)C(N)=O [huNKB, reference compound] | 12.9 ± 13.3 nM | 12.9 ± 13.3 nM | 8.12 ± 1.56 nM | 8.12 ± 1.56 nM | 2.2 ± 1.49 nM | 2.2 ± 1.49 nM | 0.82 ± 0.16 nM | 0.82 ± 0.16 nM | – | – | – | – | – | – | – | – | – | – | – | –
2 | B1 | – | – | – | – | – | – | – | – | 11.9 nM | 16.8 nM | 6.94 nM | 0.29 nM | 3.44 nM | 0.15 nM | – | – | – | – | – | –
3 | B2 | – | – | – | – | – | – | – | – | 7.75 nM | 7.33 nM | 9.14 nM | 0.54 nM | 0.71 nM | 0.31 nM | – | – | – | – | – | –
4 | B3 | – | – | – | – | – | – | – | – | 20.1 nM | – | 49 nM | 2.72 nM | – | 2.68 nM | 20.1 nM | 2.72 nM | 49 nM | 2.67 nM | – | –
5 | B4 | – | – | – | – | – | – | – | – | 8.12 nM | – | 12.9 nM | 0.82 nM | – | 2.2 nM | 8.12 nM | 0.82 nM | 12.9 nM | 2.2 nM | – | –
6 | B5 | – | – | – | – | – | – | – | – | 16.4 nM | 6.64 nM | 4.75 nM | 26.1 nM | 0.49 nM | 0.62 nM | 4.55 nM | 1.47 nM | 5.75 nM | 0.5 nM | 3.73 nM | 0.49 nM
7 | B6 | – | – | – | – | – | – | – | – | 2.18 nM | 2.19 nM | 1.68 nM | 0.23 nM | 0.94 nM | 0.06 nM | – | – | – | – | – | –
